Laboratory results from patent US20120301472A1 (DUKE UNIVERSITY, published 2012).
Positions count from the first letter of the chain named. Each block holds one binder with its values, some of them ahead of it.

Tests used:
[1] = target: T1, native human CD22 (hCD22) (human, UniProt P20273 20-847); experiment: hybridoma screen on CD22-transfected mouse L cells
T1 construct: On Raji and Ramos Burkitt lymphoma cells (Scatchard analysis, flow cytometry) and on mouse L cells transfected with full-length CD22 cDNA (hybridoma screen)
Excerpt: Monoclonal antibodies (mAbs) HB22-7 (IgG2b), HB22-23 (IgG2a), HB22-33 (IgM), HB22-5 (IgG2a), HB22-13 (IgG2a), HB22-22 (IgA), and HB22-196 were produced according to the method of Engel et al., J Immunol 15:4710 (1993) and U.S. Pat. No. 5,484,892. See, also Tuscano et al, Blood 94:1382-1392 (1999). However, other methods may be used. Briefly, the HB22 mAbs were produced via hybridoma techniques using a mouse pre-B cell line 300.19, stably transfected with full length CD22 cDNA, as the immunogen. More specifically, thirty-three mAbs reactive with CD22 were generated by the fusion of NS-1 myeloma cell with spleen cells from Balb/c mice immunized three times with a mouse pre-B cell line, 300.19, stably transfected with a full-length CD22 cDNA. Hybridomas producing mAb reactive with mouse L cells transfected with CD22 cDNA, but not with untransfected cells, were cloned twice and used to generate supernatant or ascites fluid. mAb isotypes were determined using the Mouse Monoclonal Antibody Isotyping Kit (Amersham, Arlington Heights, Ill.). IgGmAb were purified using the Affi-Gel Protein A MAPS II Kit (Bio-Rad, Richmond, Calif.).

[2] = target: T1, native human CD22 (hCD22); experiment: Scatchard analysis, Raji against Ramos cells
Method: Cell lines and Scatchard Analysis. Raji and Ramos Burkitt lymphoma, cell lines were purchased from American Type Culture Collection (ATCC, Manassas, Va.). Both cell lines stained for CD22 expression by flow cytometric methods utilizing the HB22-7 mAb, as described previously (Tuscano et al., supra). The cell lines were maintained in RPMI 1640 supplemented with 10% fetal calf serum at 0.5 times. 10⁶ cells/ml. A Scatchard analysis using Raji and Ramos cells was performed as described previously (Scatchard, G., Ann. of NY Acad Sci. 51:660 (1947)). Briefly, HB22-7 was labeled with ¹²⁵ I by the chloramine T method (specific activity of […]). A competitive binding assay was performed utilizing serially diluted, unlabeled HB22-7.
Scatchard analysis was utilized to assess the binding affinity of HB22-7 and the number of CD22 receptors on Ramos and Raji cells. The cells were assayed for maximum, binding percentage (Bmax), disassociation constant (Ka) and number of antibodies bound per cell. The results shown in Table 1 are the average of two experiments.

T1 sequence (P20273 other isoform, or with tags, fused parts or gaps limits assumed): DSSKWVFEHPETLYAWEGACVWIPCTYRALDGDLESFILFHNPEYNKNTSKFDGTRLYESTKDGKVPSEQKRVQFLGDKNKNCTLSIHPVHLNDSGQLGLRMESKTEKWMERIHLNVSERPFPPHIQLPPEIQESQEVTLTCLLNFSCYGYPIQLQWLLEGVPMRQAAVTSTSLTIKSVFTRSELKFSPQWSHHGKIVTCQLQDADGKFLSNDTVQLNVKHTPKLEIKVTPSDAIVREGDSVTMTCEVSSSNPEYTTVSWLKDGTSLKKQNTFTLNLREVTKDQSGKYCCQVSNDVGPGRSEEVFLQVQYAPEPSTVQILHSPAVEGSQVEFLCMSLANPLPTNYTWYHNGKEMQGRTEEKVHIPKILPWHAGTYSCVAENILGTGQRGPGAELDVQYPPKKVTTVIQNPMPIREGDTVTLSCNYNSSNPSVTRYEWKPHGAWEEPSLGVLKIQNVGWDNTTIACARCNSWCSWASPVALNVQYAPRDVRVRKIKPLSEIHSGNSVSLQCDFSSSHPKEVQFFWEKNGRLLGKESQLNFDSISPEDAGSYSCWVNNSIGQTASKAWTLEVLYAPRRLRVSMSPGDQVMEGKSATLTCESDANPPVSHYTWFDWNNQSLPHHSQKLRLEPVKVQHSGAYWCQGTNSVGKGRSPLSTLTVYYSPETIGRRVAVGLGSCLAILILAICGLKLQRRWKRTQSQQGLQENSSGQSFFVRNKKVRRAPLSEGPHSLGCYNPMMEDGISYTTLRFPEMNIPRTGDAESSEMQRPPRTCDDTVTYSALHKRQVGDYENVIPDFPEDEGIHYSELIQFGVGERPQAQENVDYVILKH

- binding result [1]: binds
B1: anti-CD22 monoclonal antibody HB22-33 (antibody, V domains shown)
VH: EVQLQESGPGLVKPSQSLSLTCSVTGYSITSGYYWNWIRQFPGNKLEWMGYIRYDGSNNYNPSLKNRISITRDTSKNQFFLKLNSVTTEDTATYYCARGGITVAMDYWGQGTSVTVSS
VL: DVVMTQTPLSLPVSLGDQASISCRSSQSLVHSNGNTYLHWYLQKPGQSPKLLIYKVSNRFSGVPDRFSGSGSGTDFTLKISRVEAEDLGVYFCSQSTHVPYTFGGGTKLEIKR

- binding result [1]: binds
B2: anti-CD22 monoclonal antibody HB22-5 (antibody, V domains shown)
VH: EVQLQESGPELVKPGASMKISCKASGYSFTDYTMNWVKQSHGKNLEWIGLLHPFNGGTSYNQKFKGKATLSVDKSSSTAFMELLSLTSEDSAVYFCARGTGRNYAMDYWGQGTSVTVSS
VL: SIVMTQTPKFLLVSTGDRVTITCKASQTVTNDLAWYQQKPGQSPKLLIYYASNRYTGVPDRFTGSGYGTDFTFTINTVQAEDLAVYFCQQDYSSPLTFGAGTKLELKR

- binding result [1]: binds
B3: anti-CD22 monoclonal antibody HB22-13 (antibody, V domains shown)
VH: EVQLQESGGGLVQPGGSLRLSCATSGFTFIDYYMNWVRQPPGKALEWLGFIKNKFNGYTTEYNTSVKGRFTISRDNSQSILYLQMNTLRAEDSATYYCARGLGRSYAMDYWGQGTSVTVSS
VL: B2 VL with T15A, T20S, T28S, L33V, A34T, Y50F, N76S

- fold increase in Ka, Raji cells versus Ramos cells [2]: 2 fold
- fold increase in antibodies bound per cell and Bmax, Raji cells versus Ramos cells [2]: ~2.5 fold
B4: anti-CD22 monoclonal antibody HB22-7 (antibody, V domains shown)
VH: EVQLQESGPGLVAPSQSLSITCTVSGFSLSDYGVNWVRQIPGKGLEWLGIIWGDGRTDYNSALKSRLNISKDNSKSQVFLKMNSLKADDTARYYCARAPGNRAMEYWGQGTSVTVSS
VL: B2 VL with T15A, V19I, I21L, T28S, L33V, N76S, S93R, L96W, A100G, L106I
notes: Labelled with 125I for the Scatchard assay; also called HB11347; anti-CD22 mAb
